The target of the experiment is T1, 单核细胞增生李斯特氏菌鞭毛蛋白免疫原 (Listeria monocytogenes, UniProt Q02551 1-287).
T1 construct: Native flagellin preparation concentrated by ultrafiltration, not a recombinant protein; purity beyond the 33 kD band is not described; also called 免疫原蛋白; 抗原
T1 sequence (looked up): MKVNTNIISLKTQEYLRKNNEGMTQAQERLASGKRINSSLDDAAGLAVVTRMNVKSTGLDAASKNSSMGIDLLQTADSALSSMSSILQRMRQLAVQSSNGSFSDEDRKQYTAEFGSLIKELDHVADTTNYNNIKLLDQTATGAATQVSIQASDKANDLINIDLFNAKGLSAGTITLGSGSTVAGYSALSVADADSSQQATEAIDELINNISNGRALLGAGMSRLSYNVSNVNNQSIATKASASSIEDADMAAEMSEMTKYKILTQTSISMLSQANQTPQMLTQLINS
Description: IAsys Plus optical biosensor, immunogen immobilised on CMD cuvette, antibody at 5 concentrations, FASTfit.

B1: LM6G3单克隆抗体 (antibody, V domains shown)
VH: VKPGGSLKLSCAASITAQPSPRMSWVRQTPDKRLEWVAICFEKKIGLYYPDSVKGRFTISRDQDKQTLYLQMSSLKSEDTAMYYCEHEWWDEQVSPWGQGTTVTVS
VL: DLVMTQTAPSVPVTPGESVSISCRSTFKPWPKYEPLHLYWFLQRPGQSPQLLIYMWFNLASGVPDRFSGSGSGTAFTLRISRVEAEDVGVYYCMNACCYYRQFGSGTKLEIK
In the case of B1, the Kd amounted to 8.73 nM.

B2: LM3F6单克隆抗体 (antibody, V domains shown)
VH: VKPGGSLKLSCAASSWAQYINTMSWVRQTPDKRLEWVAIISYYSRDKYYPDSVKGRFTISRDQDKQTLYLQMSSLKSEDTAMYYCPYTRPPVIWMTWGQGTTVTVS
VL: DLVMTQTAPSVPVTPGESVSISCRSTQGYCRKLVGDYLYWFLQRPGQSPQLLIYWHPNLASGVPDRFSGSGSGTAFTLRISRVEAEDVGVYYCLCCRCKSGGFGSGTKLEIK
Take B2: the dissociation constant Kd stood at 2.46 nM.

The record behind these values is CN114989297A (BEIJING KEY BIOTECHNOLOGY CO LTD, dated 2022).
